The values below come from publication PMC4005675.

Assay [1] deals with full-length ComE^D58E from Streptococcus pneumoniae (Streptococcus pneumoniae strain R6). Briefly: SAXS.
The target of assay [2] is isolated REC^D58E domain of ComE (Streptococcus pneumoniae strain R6). Description: SEC. In general terms: In gel filtration, larger molecules generally elute earlier.
Assay [3] shares this target. Briefly: SAXS.

Usually stoichiometry N stands for the number of molecules, sites or subunits per partner or assembly. For the substance “full-length ComE^D58E from Streptococcus pneumoniae (natural protein)”, in assay [1], the stoichiometry N is 2.

On to “isolated REC^D58E domain of ComE (domain or fragment)”, for which the stoichiometry N in assay [2] and in assay [3] was 2 in each case.
